Results: publication PMC10786891, “Massively parallel profiling of RNA-targeting CRISPR-Cas13d”

T1: EsCas13d, nuclease-dead (Eubacterium siraeum, UniProt B0MS50, R295A;H300A;R849A;H854A)
T1 sequence: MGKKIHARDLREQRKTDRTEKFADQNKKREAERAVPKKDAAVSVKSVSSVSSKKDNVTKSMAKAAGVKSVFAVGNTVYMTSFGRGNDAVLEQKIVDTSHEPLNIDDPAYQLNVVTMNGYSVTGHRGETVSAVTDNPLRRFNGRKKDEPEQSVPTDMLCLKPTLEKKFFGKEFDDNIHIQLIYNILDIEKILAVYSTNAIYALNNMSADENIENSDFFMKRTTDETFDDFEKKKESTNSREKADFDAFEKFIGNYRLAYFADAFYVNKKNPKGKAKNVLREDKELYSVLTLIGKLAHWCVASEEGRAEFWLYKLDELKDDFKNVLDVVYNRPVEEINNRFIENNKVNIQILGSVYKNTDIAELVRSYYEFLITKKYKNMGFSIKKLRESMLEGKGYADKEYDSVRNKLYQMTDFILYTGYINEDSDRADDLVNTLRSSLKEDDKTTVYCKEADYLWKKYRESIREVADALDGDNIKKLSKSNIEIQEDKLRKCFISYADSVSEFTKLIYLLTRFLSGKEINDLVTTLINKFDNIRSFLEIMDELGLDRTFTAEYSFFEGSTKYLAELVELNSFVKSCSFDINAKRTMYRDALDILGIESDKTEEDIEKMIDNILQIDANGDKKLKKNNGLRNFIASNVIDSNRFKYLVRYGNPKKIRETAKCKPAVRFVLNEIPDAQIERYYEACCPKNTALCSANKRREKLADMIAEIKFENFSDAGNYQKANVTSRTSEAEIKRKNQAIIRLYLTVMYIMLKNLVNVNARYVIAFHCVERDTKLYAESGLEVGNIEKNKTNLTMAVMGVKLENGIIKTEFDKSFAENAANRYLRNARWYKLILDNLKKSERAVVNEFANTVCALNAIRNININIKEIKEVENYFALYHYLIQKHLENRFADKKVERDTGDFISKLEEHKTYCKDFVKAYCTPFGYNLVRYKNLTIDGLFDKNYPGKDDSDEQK


Biological target: T1, EsCas13d, nuclease-dead
Assay: crRNA (strand 1, pre-loaded); Mg2+; 40 mM Tris-HCl pH 7.5, 150 mM NaCl, 6 mM MgCl2, 1 mM DTT, 0.1% Tween-20, 0.2 mg/ml BSA; 25 C; 10 min per concentration, then washed
Details: tags: His6-TwinStrep-SUMO cleaved; N-terminal SNAP kept (SNAP-Surface 488); label: 3' end held by stalled T7 RNA polymerase

Binder	Kd [nM]
target 2 MT 5'PFS AAU 3'PFS UCC (mixed) RNA 1: CACCCGUGCAAAAUUGCAGGGGUCUAAAACCUUCUCCAAAUUGUUUCAUCCU RNA 2: GGGAAUGGAUCCACAUCUACGAAUUCAAUAGGAUGAAACAAUUUGGAGAAGUCCAGAUCGGAAGAGCACACGU	11.8 ± 1.9
target 1 insA 3' of 19,insC 3' of 10 (mixed) RNA 1: CACCCGUGCAAAAAUGCAGGGGUCUAAAACUGAGCGGAUAACCUCUCUAUGG RNA 2: GGGAAUGGAUCCACAUCUACGAAUUCGUACCAUAAGAGAGGUUCAUCCGCUCACCGAGAUCGGAAGAGCACACGU	40 ± 4
target 2 MT 5'PFS UAC 3'PFS AUG (mixed) RNA 1: CACCCGUGCAAAAUUGCAGGGGUCUAAAACCUUCUCCAAAUUGUUUCAUCCU RNA 2: GGGAAUGGAUCCACAUCUACGAAUUCUACAGGAUGAAACAAUUUGGAGAAGAUGAGAUCGGAAGAGCACACGU	6.8 ± 1.4
target 2 MT 5'PFS AAA 3'PFS CCU (mixed) RNA 1: CACCCGUGCAAAAUUGCAGGGGUCUAAAACCUUCUCCAAAUUGUUUCAUCCU RNA 2: GGGAAUGGAUCCACAUCUACGAAUUCAAAAGGAUGAAACAAUUUGGAGAAGCCUAGAUCGGAAGAGCACACGU	34 ± 13
target 2 MT 5'PFS AAU 3'PFS UCU (mixed) RNA 1: CACCCGUGCAAAAUUGCAGGGGUCUAAAACCUUCUCCAAAUUGUUUCAUCCU RNA 2: GGGAAUGGAUCCACAUCUACGAAUUCAAUAGGAUGAAACAAUUUGGAGAAGUCUAGAUCGGAAGAGCACACGU	10.7 ± 2
target 2 MT 5'PFS UAC 3'PFS AUU (mixed) RNA 1: CACCCGUGCAAAAUUGCAGGGGUCUAAAACCUUCUCCAAAUUGUUUCAUCCU RNA 2: GGGAAUGGAUCCACAUCUACGAAUUCUACAGGAUGAAACAAUUUGGAGAAGAUUAGAUCGGAAGAGCACACGU	9.3 ± 2.9
target 2 MT 5'PFS AAA 3'PFS CCG (mixed) RNA 1: CACCCGUGCAAAAUUGCAGGGGUCUAAAACCUUCUCCAAAUUGUUUCAUCCU RNA 2: GGGAAUGGAUCCACAUCUACGAAUUCAAAAGGAUGAAACAAUUUGGAGAAGCCGAGAUCGGAAGAGCACACGU	5.7 ± 0.9
target 2 MT 5'PFS CAC 3'PFS AUC (mixed) RNA 1: CACCCGUGCAAAAUUGCAGGGGUCUAAAACCUUCUCCAAAUUGUUUCAUCCU RNA 2: GGGAAUGGAUCCACAUCUACGAAUUCCACAGGAUGAAACAAUUUGGAGAAGAUCAGAUCGGAAGAGCACACGU	2 ± 0.4
target 2 MT 5'PFS CCU 3'PFS CCA (mixed) RNA 1: CACCCGUGCAAAAUUGCAGGGGUCUAAAACCUUCUCCAAAUUGUUUCAUCCU RNA 2: GGGAAUGGAUCCACAUCUACGAAUUCCCUAGGAUGAAACAAUUUGGAGAAGCCAAGAUCGGAAGAGCACACGU	1.72 ± 0.2
target 2 MT 5'PFS AAA 3'PFS CCA (mixed) RNA 1: CACCCGUGCAAAAUUGCAGGGGUCUAAAACCUUCUCCAAAUUGUUUCAUCCU RNA 2: GGGAAUGGAUCCACAUCUACGAAUUCAAAAGGAUGAAACAAUUUGGAGAAGCCAAGAUCGGAAGAGCACACGU	10 ± 2.5
target 2 MT 5'PFS CAC 3'PFS AUG (mixed) RNA 1: CACCCGUGCAAAAUUGCAGGGGUCUAAAACCUUCUCCAAAUUGUUUCAUCCU RNA 2: GGGAAUGGAUCCACAUCUACGAAUUCCACAGGAUGAAACAAUUUGGAGAAGAUGAGAUCGGAAGAGCACACGU	1.4 ± 0.21
target 2 MT 5'PFS GAC 3'PFS AGG (mixed) RNA 1: CACCCGUGCAAAAUUGCAGGGGUCUAAAACCUUCUCCAAAUUGUUUCAUCCU RNA 2: GGGAAUGGAUCCACAUCUACGAAUUCGACAGGAUGAAACAAUUUGGAGAAGAGGAGAUCGGAAGAGCACACGU	9.5 ± 0.8
target 1 U3A,C4A (mixed) RNA 1: CACCCGUGCAAAAAUGCAGGGGUCUAAAACUGAGCGGAUAACCUCUCUAUGG RNA 2: GGGAAUGGAUCCACAUCUACGAAUUCGUACCAUAGAGAGGUUAUCCGAACACCGAGAUCGGAAGAGCACACGU	8.5 ± 0.9
target 1 insU 3' of 15,insG 3' of 10 (mixed) RNA 1: CACCCGUGCAAAAAUGCAGGGGUCUAAAACUGAGCGGAUAACCUCUCUAUGG RNA 2: GGGAAUGGAUCCACAUCUACGAAUUCGUACCAUAGAGUAGGUUGAUCCGCUCACCGAGAUCGGAAGAGCACACGU	21.6 ± 2.9
target 2 MT 5'PFS GAC 3'PFS AGA (mixed) RNA 1: CACCCGUGCAAAAUUGCAGGGGUCUAAAACCUUCUCCAAAUUGUUUCAUCCU RNA 2: GGGAAUGGAUCCACAUCUACGAAUUCGACAGGAUGAAACAAUUUGGAGAAGAGAAGAUCGGAAGAGCACACGU	16 ± 6
target 2 MT 5'PFS GAC 3'PFS AGC (mixed) RNA 1: CACCCGUGCAAAAUUGCAGGGGUCUAAAACCUUCUCCAAAUUGUUUCAUCCU RNA 2: GGGAAUGGAUCCACAUCUACGAAUUCGACAGGAUGAAACAAUUUGGAGAAGAGCAGAUCGGAAGAGCACACGU	9.3 ± 1.3
target 2 MT 5'PFS UGG 3'PFS CCG (mixed) RNA 1: CACCCGUGCAAAAUUGCAGGGGUCUAAAACCUUCUCCAAAUUGUUUCAUCCU RNA 2: GGGAAUGGAUCCACAUCUACGAAUUCUGGAGGAUGAAACAAUUUGGAGAAGCCGAGAUCGGAAGAGCACACGU	8.6 ± 0.8
target 2 MT 5'PFS AAG 3'PFS AAU (mixed) RNA 1: CACCCGUGCAAAAUUGCAGGGGUCUAAAACCUUCUCCAAAUUGUUUCAUCCU RNA 2: GGGAAUGGAUCCACAUCUACGAAUUCAAGAGGAUGAAACAAUUUGGAGAAGAAUAGAUCGGAAGAGCACACGU	3.1 ± 0.5
target 2 MT 5'PFS GAC 3'PFS AGU (mixed) RNA 1: CACCCGUGCAAAAUUGCAGGGGUCUAAAACCUUCUCCAAAUUGUUUCAUCCU RNA 2: GGGAAUGGAUCCACAUCUACGAAUUCGACAGGAUGAAACAAUUUGGAGAAGAGUAGAUCGGAAGAGCACACGU	~43
target 2 MT 5'PFS GUG 3'PFS CUC (mixed) RNA 1: CACCCGUGCAAAAUUGCAGGGGUCUAAAACCUUCUCCAAAUUGUUUCAUCCU RNA 2: GGGAAUGGAUCCACAUCUACGAAUUCGUGAGGAUGAAACAAUUUGGAGAAGCUCAGAUCGGAAGAGCACACGU	21.4 ± 2
target 2 MT 5'PFS GUG 3'PFS CUA (mixed) RNA 1: CACCCGUGCAAAAUUGCAGGGGUCUAAAACCUUCUCCAAAUUGUUUCAUCCU RNA 2: GGGAAUGGAUCCACAUCUACGAAUUCGUGAGGAUGAAACAAUUUGGAGAAGCUAAGAUCGGAAGAGCACACGU	8.5 ± 0.7
target 2 MT 5'PFS GUG 3'PFS CUG (mixed) RNA 1: CACCCGUGCAAAAUUGCAGGGGUCUAAAACCUUCUCCAAAUUGUUUCAUCCU RNA 2: GGGAAUGGAUCCACAUCUACGAAUUCGUGAGGAUGAAACAAUUUGGAGAAGCUGAGAUCGGAAGAGCACACGU	10.1 ± 0.7
target 2 MT 5'PFS GGU 3'PFS AAU (mixed) RNA 1: CACCCGUGCAAAAUUGCAGGGGUCUAAAACCUUCUCCAAAUUGUUUCAUCCU RNA 2: GGGAAUGGAUCCACAUCUACGAAUUCGGUAGGAUGAAACAAUUUGGAGAAGAAUAGAUCGGAAGAGCACACGU	12.4 ± 2.2
target 2 MT 5'PFS UCA 3'PFS AAC (mixed) RNA 1: CACCCGUGCAAAAUUGCAGGGGUCUAAAACCUUCUCCAAAUUGUUUCAUCCU RNA 2: GGGAAUGGAUCCACAUCUACGAAUUCUCAAGGAUGAAACAAUUUGGAGAAGAACAGAUCGGAAGAGCACACGU	7.5 ± 1.1
target 1 C7A,A16G (mixed) RNA 1: CACCCGUGCAAAAAUGCAGGGGUCUAAAACUGAGCGGAUAACCUCUCUAUGG RNA 2: GGGAAUGGAUCCACAUCUACGAAUUCGUACCAUAGGGAGGUUAUACGCUCACCGAGAUCGGAAGAGCACACGU	30 ± 1.9
target 2 MT 5'PFS UCA 3'PFS AAA (mixed) RNA 1: CACCCGUGCAAAAUUGCAGGGGUCUAAAACCUUCUCCAAAUUGUUUCAUCCU RNA 2: GGGAAUGGAUCCACAUCUACGAAUUCUCAAGGAUGAAACAAUUUGGAGAAGAAAAGAUCGGAAGAGCACACGU	4.2 ± 0.9
target 2 MT 5'PFS UCA 3'PFS AAG (mixed) RNA 1: CACCCGUGCAAAAUUGCAGGGGUCUAAAACCUUCUCCAAAUUGUUUCAUCCU RNA 2: GGGAAUGGAUCCACAUCUACGAAUUCUCAAGGAUGAAACAAUUUGGAGAAGAAGAGAUCGGAAGAGCACACGU	6.7 ± 1
target 2 MT 5'PFS GUG 3'PFS CUU (mixed) RNA 1: CACCCGUGCAAAAUUGCAGGGGUCUAAAACCUUCUCCAAAUUGUUUCAUCCU RNA 2: GGGAAUGGAUCCACAUCUACGAAUUCGUGAGGAUGAAACAAUUUGGAGAAGCUUAGAUCGGAAGAGCACACGU	12.8 ± 1
